B1: TPR t1 (parent)
chain: GACCAAUCUGCCCUCAGAGCUCGAGAACAUCUUCGGAUGCAGAGGAGGCAGGCUUCGGUGGCGCGAUAGCGCCAACGUCCUCAACCUCCAAUGCAUCCCACCACAUGAUGAUGCCUGAAGAGCCUUGGUUUUUUG

Variants of: B1
Experiment: polymerase ribozyme fitness, log enrichment relative to wild type (log ratio); higher = more active; in vitro selection for triplet polymerase activity
In short: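 PCR was used to build mutant libraries for each subunit of a heterodimeric triplet polymerase ribozyme, which were then transcribed. A single in vitro selection round, in triplicate, used a frozen incubation at −7 °C and recovered extended constructs by gel excision, streptavidin beads and RT-PCR. Fitness is the logarithm of genotype enrichment relative to wild-type enrichment, averaged over replicates with inverse-variance weights. The logarithm is base 2, and after Illumina sequencing only genotypes with ≥10 input reads and ≥1 read per output were kept.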

Variant	polymerase ribozyme fitness (log ratio)
GCCCAAUCUGCCCUCAGAGCUCGAGAACAUCUUCGGAUGCAGAGGAGGCAGGCUUCGGUGGCGCGAUAGCGCCAACGUCCUCAACCUCCAAUGCAUCCCACCACAUGAUGAUGACUGAAGAGCCUUGGUUUUUUG	-3.32
GCCCAAUCUGCCCUCAGAGCUCGAGAACAUCUUCGGAUGCAGAGGAGGCAGGCUUCGGUGGCGCGAUAGCGCCAACGUCCUCAACCUCCAAUGCAUCCCACCACAUGAUGAUGUCUGAAGAGCCUUGGUUUUUUG	-3.24
GCCCAAUCUGCCCUCAGAGCUCGAGAACAUCUUCGGAUGCAGAGGAGGCAGGCUUCGGUGGCGCGAUAGCGCCAACGUCCUCAACCUCCAAUGCAUCUCACCACAUGAUGAUGCCUGAAGAGCCUUGGUUUUUUG	-3.19
GCCCAAUCUGCCCUCAGAGCACGAGAACAUCUUCGGAUGCAGAGGAGGCAGGCUUCGGUGGCGCGAUAGCGCCAACGUCCUCAACCUCCAAUGCAUCCCACCACAUGAUGAUGCCUGAAGAGCCUUGGUUUUUUG	-2.19
GCCCAAGCUGCCCUCAGAGCUCGAGAACAUCUUCGGAUGCAGCGGAGGCAGGCUUCGGUGGCCCGAUAGCGCCAACGUCCUCAACCUCCAAUGCAUCCCACCACAUGAUGAUGCUUGAAGAGCCUUGGUUUUUUG	-4.87
GCCCAAUCUGCCCUCAGAGCUCGAGAACAUCUACGGAUGCAGAGGAGGCAGGCUUCGGUAGCGCGAUAGCUCCAACGUCCUCAACCUCCAAUGCAUCCCACCACAUGAUGAUGCUUGAAGAGCCUUGGUUUUUUG	-6.78
GCCCAAUCUGCCCUCAGAGCUCGAGAACAUCUUCGGAUGCAGAGGAGGCAGGCUUCGGUGGCGCGAUAGCGCCAACGUCCUCAACUUCCAAUGCAUCCCACCACAUGAUGAUGCCUGAAGAGCCUUGGUUUUUUG	-1.99
GCCCAAUCUGCCCUCAGAGCUCGAGAACAUCUUCGGAUGCAGAGGAGGCAGGCUUCGGUGGCGCGAUAGCUCCAACGUCCUCAACCUCCAAUACAUCCCACCACAUGAUGAACCCUGAAGAGCCUUGGUUUUUUG	-4.56
GCCCAAUCUGCCCUCAGAGCUCGAGAACAUCUUCGGAUGCAGAGGAGGCAGACUUCGGUGGCGCGAUAGCGCCAACGUCCUCAACCUCCAAUGCAUCCCACCACAUGAUGAUGCCUGAAGAGCCUUGGUUUUUUG	-2.22
GCCCAAUCUGCCCUCAGAGCUCGAGAACAUCUUCGGAUGCAGAGGAGGCAGGCUUCGGUAGCGCGAUAGCGCCAACGUCCUUAACCUCCAAUGCAUCCCACCACAUGAUGAUGCCUGAAGAGCCUUGGUUUUUUG	-2.16
GCCCAAUCUGCCCUCAGAGCUCGAGAACAUCUUCGGAUGCAGAGGAGGCAGGCUUCGGUGGCGCGAUAGCGCAAACGUCCUCAACCUCCAAUGCAUCCCACCACAUGAUGAUGCCUGAAGAGCCUUGGUUUUUUG	-1.09
GCCCAAUCUGCCCUCAGAGCUCGAGAACAUCUUCGGAUGCAGAGGAGGCAGGCUUCGGUGGCGCGAUAGCGCCAACGUCCUCAACCUCCAAUGCAUCCCACCACAUGAUGAUGCAUGAAGAGCCUUGGUUUUUUG	-1.3
GCCCAACCUGCCCUCAGAGCUCGAGAACAUCUUCGGAUGCAGAGGAGGCAGGCUUCGGUGGCGCGAUAGCGCCAACGUCCUCAACCUCCAAUGCAUCCCACCACAUGAUGAUUCCUGAACAGCCUUGGUUUUUUG	-4.07
GCCCAAUCUGCCCUCAGAGCUCGAGAACAUCUUCGCAUGCAGAGGAGGCAGGCUUCGGUGGUGCGAUAGCGCCAACGUCCUCAACCUCCAAUGCAUCCCACCACAUGAUGAUGCCUGAAGAGCCUUGGUUUUUUG	-2.66
GCCCAAUCUGCCCUCAGAGCUCGAGAACAUCUUCGAAUGCAGAGGAGGCAGGCCUCGGUGGCGCGAUAGCGCCAACGUCCUCAACCUCCAAUGCAUCCCACCACAUGAUGAUGCCUGAAGAGCCUUGGUUUUUUG	-2.04
GCCCAAUCUGCCCUCAGAGCUCGAGAACAUCUUCGGAUGCAGAGGAGGCAGGCUUCGGUGGCGCGAUAGCCCCAACGUCCUCAACCUCCAAUGCAUCCAACCACUUGAUGGUGCCUGAAGAGCCUUGGUUUUUUG	-6.44
GCCCAAUCUGCCCUCAGAGCUCGAGAACAUCUUCGGAUGCAGAGGAGGCAGGCUUCGGUCGCGCGAUAGCGCCAACGUCCUCAACCUCCAAUGCAUCCCACCACAUGAUGAUGCCUGAAGAGCCUUGGUUUUUUG	-1.65
GCCCAAUCUGCCCUCAGAGCUCGAGAACAUCUUCGGAUGCAGAGGAGGCAGGCAUCGGUGGCGCGAUAGCGGCAACGUCCUCAACCUCCAAUGCAUCCCACCAUAUGAUGAUACCUGAAGAGCCUUGGUUUUUUG	-2.82
GCCCAAUCUGCCCUCAAAGCUCGAGAACAUCUUCGGAUGCAGACAAGGCAGGCUUCGGUGGCGCGAUAGCGCCAACGUCCUCAACUUCCAAUGCAUCCCACCACAUGAAGAUGCCUGAAGAGCCUUGGUUCUUUG	-7.35
GCCCAAUCUGCCCUCAGAGCUCGAGAACAUCUUCGGAUGCAGAGGAGGCAGGCUUCGGUGGCGCGAUAGCGCCAACGUCCUCAACCUCCAAUGCAUCCCACCACAUGAUGAUGCCUGAAGAGUCUUGCUUUUUUG	-0.305
GCCCAAUCUGCCCUCAGAGCGCGAGAACAUCUUCGGAUGCAGAGGAGGCAGGCUUCGGUGGCGCGAUAGCGACAACUUCCUCAACCUCCAAUGCAUCCCACCACAUGAUGAUGCCUGAAGAGCCUUGGUUUUUUG	-4.23

Variant	polymerase ribozyme fitness (log ratio)
GCCCAAUCUGCCCUCAGAGCUCGAGAACAUCUUCGGAUGCAGAGGAGGCAGGCUUCGGUGGCGCGAUAACGCCAACGUCCUCAACCUCCAAUGCAUCCCAUCAUAUGAUGAUACCUGAAGAGCCUUCGCUUUUUG	-5.09
GCCCAAUCUGCCCUCAGAGCUCGAGAACAUCUUCGGAUGCAGAGGAGGCAGGCUUCGGUGGCGCGAUAGCGCCAACGUCCUCAACUUCCCAUGCAUCCCACCACAUGAUGAUGCCUGAAGAGCCUUGGUUUUUUG	-4.21
GCCCAAUCUGCCCUCAGAGCUCGAGAACAUCUUCGGAUGCAGAGGAGGCAGGCUUCGGUGGCGCGAUAGCGCCAACGUCCUCAACCUCCAAUGCAUCCCACCACAUGAUGAUGCCUGAAGAGCCUUUGUUUUUUG	-1.27
GCCCAAUCUGCCCUCAGAGCUCGAGAACAUCUUCGGAUGCAGAGGAGGCAGGCUUCGGUGCCGCGAUAGCGCCAACGUCCUCAACCUCCAAUGCAUCCCACCACAUGAUGAUGCCUGAAGAGCCUUGGUUUUUUG	-3.02
GCCCAAUCUGCCCGCAGAGCUCGAGAACAUCUUCGGCUGCAGAGGAGGGAGGCUUCGGUCGCGCGAUAGCGCCAACGUCCUCAACCUCCAAUGCAACCCACCACAUGAUGUUGCCUGAAGAGCCUUGGUUUUUUG	-6.59
GCCCAAUCUGCCCUCAGAGCUCGAGAACAUCUUCGGAAGCAGAGGAGGCAGGCUUAGGUGGCGCGAUAGCGCCAACGUCCUCAACCUCCAAUGCAUCCCACCACAUGAUGAUCCCUGAAGAGCCUUGGAUUUUUG	-4.44
GCCCAAUCUGCCCUCAGAGCUCGAGAACAUCUUCGGAUGCAGAGGAGGCAGGCUUCGGUGGCGCGAUAGCGCCAAUGUCCUCAACCUCCAAUGCAUCCCACCACAUGAUGAUGCCUGAAGAGCCUAGGUUUUUUG	-1.99
GCCCAAUCUGCCCUCAGAGCUCGAGAACAUCUUCGGAUGCAGAGGAGGCAGGCUUCGGUGGCUCGAUAGCGCCAACGUCCUCAACCUCCAAUGCAUCCCUCCACAUGAUGAUGCCUGAAGAGCCUUGGUUUUGUG	-3.47
GCCCAAUCUGCCCUCAGAGCUCGAGAACAUCUUCGGAUGCAGAGGAGGCAGGCUUCGGUGGCGCGAUAACGCCAACGUCCUCAACCUCCAAUGCAUCCCACCACAUGAUGAUGCCUGAAGAGCCUUGGUUUUUUG	-3.57
GCCCAAUCUGCCCUCAGAGCUCGAGAACAUCUUCGGAUCCAGAGGAGGCAGGCUUCGGUGGCGCGAUAUCGCCAACGUCCUCAACCUCCAAUGCAUCCCACCACAUGAUGACGCCUGAAGAGCCUUGGUUUUUUG	-0.882
GCCCAACCUGCCCUUAGAGCUCGAGAACAUCUUCGGAUGCAGAGGAGGCAGGCUUCGGUGGCGCGAUAGCGUCAACGUCCUCAACCUCCAAUGCAUCCCACCACUUGAUGAUGCCUGAAGAGCCUUGGUUUUUUG	-3.49
GCCCAAUCUGCCCUCAGAGCUCGAGAACAUCUUCGGAUGCAGAGGAGGCAGGCUUCGGUGGCGCGAUAGCGCCAACGUCCUCAACCUCCAAUGCAUCCCACCACAUGAUGAUGCCUGAAUAGCCUUGGUUUUUUG	-0.948
GCCCAAUCUGCCCUCAGAGCUCGAGAACAUCUUCGGAUGCAGAGGAGGCAGGCUUCGGUGGCGCGAUAGCGCCAACGUCCUCAACCUCCAAUGCAUCCCACCACAUGAUGAUGCCUGAACAGCCUUGGUUUUUUG	-0.618
GCCCAAUCUGCCCUCAGAGCUCGAGAACAUCUUCGGAUGCAGAGGAAGCAGGCUUCGGUGGCGCGAUAGCGCCAACGUCCUCAACCUCCAAUUCAUCCCACCACAUGAUGAUGCCUGAAGAGCCUUGGUUUUUUG	-5.29
GCCCAAUCUGCCCUCAGAGCUCGAGAACAUCUUCGGAUGCAGAGGAGGCAGGCUUCGGUGGCGCGAUAGCGCCAACGUCCUCAACCUCCAAUGCAUCCCACCACAUGAUGAUGCCUGAAAAGACUUGGUUUUUUG	-0.977
GCCCAAUCUGCCCUCAGAGCUCGAGAACAUCUUCGGAUUCCGAGGAGGCAGGCUUGGGUGGCGCGAUAGCGCCAACGUCCUCAACCUCCAAUGCAUCCCAACACAUGAUGAUGCCUGAAGAGGCUUGGUUUUUUG	-4.81
GCCCAAUCUGCCCUCAGAGCUCGAGAACAUCUUCGGAUGCAGAGGAGGCAGGCUUCGGUGGCGCGAUAGCGCCAACGUCCUCAACCUCCAAUGCAUCCCAUCACAUGAUGAUGCCUGAAGAGCCUUGGUUUUUUG	-1.67
GCCCAAUCUGCCCUCAGAGCUCGAGAACAUCUUCGGAUGCAGAGGAGGCAGGCUUCGGUGGCGCGAUAGCGCCAACGUCCUCAACCUCCAAUGCAUCCCAACACAUGAUGAUGCCUGAAGAGCCUUGGUUUUUUG	-2.7
GCCCAAUCUGCCCUCAGAGCUCGAGAACAUCUUCGGAUGCAGAGGAGGCAGGCUUCGGAGGCGCGAUAGCGCCAACGUCCUCAACCUCCAAUGCAUCCCACCACAUGAUGAUGCCUGAAGAACCUUGGUUUUUUG	-2.15
GCCCAAUCUGCCCUCAGAGCUCGAGAACAUCUUCGGAUGCAGAGGAGGCAGGCUUCGGUGCCGCGAUAGCGCCAACGUCCUCAACCUCCAAUGCAUCCCACCACAUGAUGAUGCCUGAAGCGCCUUGGUUUUUUG	-1.16
GCCCAAUCUGCCCUCAGAGCUCGAGAACAUCUUCGGAUGCAGAGGAGGCAGGCUUCGGUGGCGCGAUAGCGCCAACGUCCUCAACCUCCAAUGCAUCCCACCACAUGAUGAUGCCUGAAUAGCAUUGGUUGUUUG	-1.15

From the RNAGym collection of RNA variant scans (doi:10.1073/pnas.2313332121)
